Data on 5 molecules can be found in US20060287508A1 (Chugai, published 2006).

Where a chain is given by its changes, count along the chain named. Names and notes keep the numbering of the source.

Test [1] has as its target T1, hTF (Thromborel S) (human, UniProt P13726 33-295). In words: cell-based or functional assay.
Test [2] deals with T1, hTF (Thromborel S). As to the kind of experiment: cell-based or functional assay. This is another data set of the same source.
Test [3] has as its target T2, shTF (human, UniProt P13726 33-251, limits assumed).
T2 construct: also called human tissue factor
As to the kind of experiment: TF binding activity after 4 weeks at 40 C, pH 7.5, against own initial value (FIG. 13B).

Test [4] concerns the target T2, shTF. In words: competitive ELISA on coated shTF against biotinylated anti-human TF antibody; anion exchange main peak. For orientation: ELISA stands for enzyme-linked immunosorbent assay.
Protocol: (§1) shTF was adjusted to 20 nM with coating buffer (hereafter, indicated as CB), dispensed at 100 μl/well into a 96-well plate and incubated at 4° C. overnight. Each well was washed three times with rinse buffer (hereafter, indicated as RB); 200 μl dilution buffer (hereafter, indicated as DB) was added to each well. The plate was left standing at room temperature for 2 hours for blocking. […] The plate was washed three times with RB. After 100 μl ALP-streptavidin diluted 5,000-fold with DB was dispensed to each well, the plate was left standing for 1 hour at room temperature. Each well was washed 5 times with RB, and SIGMA104 adjusted with substrate buffer (hereafter, indicated as SB) to 1 mg/ml was dispensed to each well. Plates were left standing for 30 min at room temperature for color development and measured with a microplate reader at a wavelength of 405 nm and a control wavelength of 655 nm.
This was taken as the binding activity.
Test [5] concerns the target T2, shTF. As to the kind of experiment: competitive ELISA on coated shTF against biotinylated anti-human TF antibody; anion exchange subpeak.
Protocol: as §1
This was taken as the binding activity.

T2 sequence (P13726 33-251 limits assumed): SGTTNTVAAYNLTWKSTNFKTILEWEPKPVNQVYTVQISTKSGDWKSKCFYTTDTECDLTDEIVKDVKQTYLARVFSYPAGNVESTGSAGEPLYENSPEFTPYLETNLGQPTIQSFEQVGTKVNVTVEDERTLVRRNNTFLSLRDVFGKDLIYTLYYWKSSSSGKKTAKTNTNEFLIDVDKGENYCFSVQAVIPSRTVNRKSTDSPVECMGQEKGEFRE
T1 sequence (P13726 33-295 limits assumed): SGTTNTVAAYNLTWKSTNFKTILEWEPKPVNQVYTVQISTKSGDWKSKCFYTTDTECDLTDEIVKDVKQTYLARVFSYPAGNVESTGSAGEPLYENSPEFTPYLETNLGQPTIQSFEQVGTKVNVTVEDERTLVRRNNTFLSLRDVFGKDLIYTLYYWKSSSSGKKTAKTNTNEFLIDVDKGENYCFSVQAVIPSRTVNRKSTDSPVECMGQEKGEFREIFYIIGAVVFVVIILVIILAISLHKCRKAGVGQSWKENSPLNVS

B1: anti-human TF antibody N28D mutant (antibody, human IgG4 S228P, kappa, V domains shown)
VH: QVQLLESGAVLARPGTSVKISCKASGFDIKDYYMHWVKQRPGQGLEWIGGNDPANGHSMYDPKFQGRVTITADTSTSTVFMELSSLRSEDTAVYYCARDSGYAMDYWGQGTLVTVSS
VL: DIQMTQSPSSLSASVGDRVTITCKASQDIKSFLSWYQQKPEKAPKSLIYYATSLADGVPSRFSGSGSGTDYTLTISSLQPEDFATYYCLQHGESPYTFGGGTKVEIKR
Regarding B1, in the test with hTF (Thromborel S) [1], the “Calculated concentration (ng/ml) at 250 ng/ml added” value (“Calculated concentration (ng/ml)” below) was 253 ng/mL.

B2: anti-human TF antibody described in WO 99/51743 (humanized heavy chain version i, humanized light chain version b2) (antibody, human IgG4 S228P, kappa, V domains shown)
VH: B1 VH with D28N
VL: B1 VL
notes: Expressed as human IgG from vector pN5KG4P-AHi-ALb2; also called original anti-human TF antibody; Original
In the case of B2, in the test with hTF (Thromborel S) [1], the “Calculated concentration (ng/ml)” value was 248 ng/mL and the “Neutralizing activity ratio (%)” value was 99.1%. For the same molecule, in the test with hTF (Thromborel S) [2], the “TF neutralizing activity (Equation 2, relative to standard antibody)” value is 66% and the “TF neutralizing activity after accelerated testing at 40 C for 4 weeks, relative to the initial value” is around 40%. The “TF binding activity after 4 weeks of accelerated testing (% of its activity before)” value with shTF [3] was around 60%. Further, the “Binding Activity, Peak 1 (% of standard antibody)” value in the test with shTF [4] was 100%. The “Binding Activity, Peak 2 (% of standard antibody)” value with shTF [5] was determined as 70.6%.

B3: anti-human TF antibody N55D mutant (antibody, human IgG4 S228P, kappa, V domains shown)
VH: B1 VH with D28N, N55D
VL: B1 VL
B3: the “Calculated concentration (ng/ml)” value in the test with hTF (Thromborel S) [1] is 49.8 ng/mL.

B4: anti-human TF antibody N51D mutant (antibody, human IgG4 S228P, kappa, V domains shown)
VH: B1 VH with D28N, N51D
VL: B1 VL
In the case of B4, in the test with hTF (Thromborel S) [1], the “Calculated concentration (ng/ml)” value was 164 ng/mL.

B5: anti-human TF antibody N51D/N55D double mutant (antibody, human IgG4 S228P, kappa, V domains shown)
VH: B1 VH with D28N, N51D, N55D
VL: B1 VL
On to B5, for which the “Calculated concentration (ng/ml)” value in the test with hTF (Thromborel S) [1] is 31.3 ng/mL.
